{
  "source": "patent US20200340060A1",
  "about": "“COMPOSITIONS AND METHODS FOR IDENTIFYING AND TREATING LIVER DISEASES AND MONITORING TREATMENT OUTCOMES” (Gilead Sciences, Inc., priority 2017, published 2020)",
  "test_system": "liver fibrosis in NASH subjects",
  "assay": "Simtuzumab clinical studies (SIM 0105/0106) in NASH, CRN fibrosis stage change at week 48",
  "type": "in vivo, human",
  "conditions": "SIM study samples",
  "data": [
    {"molecule": "simtuzumab (antibody, chains of the INN, looked up, V domains shown) VH: QVQLVQSGAEVKKPGASVKVSCKASGYAFTYYLIEWVRQAPGQGLEWIGVINPGSGGTNYNEKFKGRATITADKSTSTAYMELSSLRSEDTAVYFCARNWMNFDYWGQGTTVTVSS VL: DIVMTQTPLSLSVTPGQPASISCRSSKSLLHSNGNTYLYWFLQKPGQSPQFLIYRMSNLASGVPDRFSGSGSGTDFTLKISRVEAEDVGVYYCMQHLEYPYTFGGGTKVEIK", "values": [
      {"measurement": "efficacy on fibrosis stage change", "result": "lack of efficacy"}
    ]}
  ]
}
